Here are results for three molecules from patent US20190300618A1 (Merck Sharp & Dohme, published 2019).

Experiment [1] concerns the target T1, Q41A.
T1 construct: also called hCD27 Q41A
T1 receptor: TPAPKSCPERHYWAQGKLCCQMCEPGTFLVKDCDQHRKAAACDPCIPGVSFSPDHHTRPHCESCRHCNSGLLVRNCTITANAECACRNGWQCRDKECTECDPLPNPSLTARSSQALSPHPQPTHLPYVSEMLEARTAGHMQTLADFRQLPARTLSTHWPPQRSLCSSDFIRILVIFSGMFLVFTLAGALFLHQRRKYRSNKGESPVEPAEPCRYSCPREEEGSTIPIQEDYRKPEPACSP
Put plainly: flow cytometry, CHO-K1; sub-column 1 of 2. In general terms: In flow cytometry, cells or beads pass a laser one at a time.

The target in experiment [2] is T2, I46A.
T2 construct: also called hCD27 I46A
T2 receptor: T1 receptor with A41Q, I46A
Briefly: flow cytometry, CHO-K1; sub-column 1 of 2.

In experiment [3] the target is T3, G89A.
T3 construct: also called hCD27 G89A
T3 receptor: T1 receptor with A41Q, G89A
Put plainly: flow cytometry, CHO-K1; sub-column 1 of 2.

Experiment [4] deals with T4, E9A.
T4 construct: also called hCD27 E9A
T4 receptor: T1 receptor with E9A, A41Q
Put plainly: flow cytometry, CHO-K1; sub-column 1 of 2.

Experiment [5] has as its target T5, W13A.
T5 construct: also called hCD27 W13A
T5 receptor: T1 receptor with W13A, A41Q
Put plainly: flow cytometry, CHO-K1; sub-column 2 of 2.

Experiment [6] concerns the target T6, F28A.
T6 construct: also called hCD27 F28A
T6 receptor: T1 receptor with F28A, A41Q
Put plainly: flow cytometry, CHO-K1; sub-column 2 of 2.

Experiment [7] has as its target T7, H36A.
T7 construct: also called hCD27 H36A
T7 receptor: T1 receptor with H36A, A41Q
Put plainly: flow cytometry, CHO-K1; sub-column 2 of 2.

Experiment [8] deals with T8, D43A.
T8 construct: also called hCD27 D43A
T8 receptor: T1 receptor with A41Q, D43A
Put plainly: flow cytometry, CHO-K1; sub-column 2 of 2.

The target of experiment [9] is T9, N88A.
T9 construct: also called hCD27 N88A
T9 receptor: T1 receptor with A41Q, N88A
Briefly: flow cytometry, CHO-K1; sub-column 2 of 2.

The target of experiment [10] is T10, R93A.
T10 construct: also called hCD27 R93A
T10 receptor: T1 receptor with A41Q, R93A
Briefly: flow cytometry, CHO-K1; sub-column 2 of 2.

Experiment [11] deals with T4, E9A. Briefly: flow cytometry, CHO-K1; sub-column 2 of 2.

Residue numbers refer to the chain shown, from its start.

1A4 (mouse IgG1) (antibody): the % of WT hCD27 binding (geo mean FITC) in [1] turned out to be 106%; in experiment [2] it was 129%; in [3] it was 100%; in experiment [4] it was 98.2%; in experiment [5] it was 93.4%; in [6], 60%. Moreover, the % of WT hCD27 binding (geo mean FITC) in experiment [7] amounted to 85.2%; in [8], 93.4%; in [9], 116%; in [10], 91.1%; in experiment [11], 122%.
In the case of 9F4 (mouse IgG2a) (antibody), the % of WT hCD27 binding (geo mean FITC) in experiment [1] worked out at 113%; in experiment [2], 137%; in [3] it was 116%; in experiment [4] it was 96.6%; in experiment [5], 86.5%; in experiment [6], 58.2%. The % of WT hCD27 binding (geo mean FITC) turned out to be 66.5% in experiment [7]; 92.5% in experiment [8]; 104% in [9]; 91.1% in [10]; 109% in experiment [11].

B1: Antibody hCD27.131A (mouse parental 131A) (antibody, V domains shown)
VH: QIQLVQSGPELKKPGETVKISCKASGYTFTNYGMNWVKQAPGKGLKWMGWINTNTGEPTYAEEFKGRFAFSLETSATTAYLQINNLKNEDTATYFCAREGDAMDYWGQGTSVTVSS
VL: QIVLTQSPAIMSASPGEKVTMTCSASSSVSYMHWYQQKSGTSPKRWIYDTSKLASGVPARFSGSGSGTSYSLTISSMEAEDAATYYCQQWNSYPFTFGSGTKLEIK
notes: mouse IgG1; also called mouse hCD27.131A
As for B1, the “% of WT hCD27 binding (geo mean FITC)” value was 108% in [1]; 132% in experiment [2]; 113% in [3]; 96.7% in [4]; 88.6% in experiment [5]; 57.1% in experiment [6]. Besides, the “% of WT hCD27 binding (geo mean FITC)” value in experiment [7] is 10.8%; in experiment [8], 96.2%; in experiment [9], 124%; in [10] it was 90%; in experiment [11], 132%.
